The record followed here is patent publication US11466067B2 (priority 2019, dated 2022).

Data set [1] in a line: PK/PD by oral, subcutaneous, intravenous route in NHP. It counts as in vivo, Macaca fascicularis. The source says:
For oral administration the IL-10 delivery construct was formulated in size 0 enteric coated capsules. For intravenous or subcutaneous administration it was formulated as a liquid in DS lyo formulation.

A short description of data set [2]: Purification with and without sulfitolysis: SEC-HPLC forms, yield, dimer recovery. How it is done:
Refolding in both processes was carried out at 4° C. The refolding solution used in both processes contained 1 mM reduced glutathione, 0.5 mM oxidized glutathione, 1M Arginine-HCl, 250 mM sucrose, 100 mM Tris pH 8.5 at 4° C., and 2 mM EDTA.
Background: In gel filtration, larger molecules generally elute earlier.

In data set [3] the test system is colonic tissue. Kind of data set: Pan-colonic administration in NHP: colonic tissue IL-10, IL-1Ra, pSTAT3, cytokines. It counts as in vivo, cynomolgus monkeys. Here is the method:
IL-10 delivery construct solution (at concentrations of 0.1, 0.3 and 1.0 mg/mL for the low, mid and high-dose groups respectively) was administered via the rectal route using sigmoidoscopy and a syringe connected to a spray nozzle with a 360° spray pattern. Serial biopsy samples were collected by sigmoidoscopy (pre-dose, 0.25, 0.5, 0.75, 8 and 24-28 hours post dose). Serial plasma samples from 0 min pre-dose to between 24-28 hours post-dose were collected for analysis for the IL-10 delivery construct.
Phosphorylation of STAT3 is an early downstream event following IL-10 receptor activation.
Colonic biopsies at each tissue timepoint were analyzed for local concentration of IL-10 delivery construct, total IL-10, IL-1Ra, soluble cytokines, activation of STAT3 and gene expression following administration of the IL-10 delivery construct. […] In addition, STC1, MTNR1A and VNN2 encode proteins that suppress the […] signaling pathway, a pathway through which key pro-inflammatory cytokines are regulated. […] This is consistent with the ability of IL-10 to suppress these cells' activation or differentiation towards a pro-inflammatory immune phenotype.

Data set [4] can be described thus: Process trains with S-650F cation exchange: yield, recovery, purity, endotoxin. Here is the method:
Refolding was carried out at 4° C. in a refolding solution containing 1 mM reduced glutathione, 0.5 mM oxidized glutathione, 1M Arginine-HCl, 250 mM sucrose, 100 mM Tris pH 8.5 at 4° C., and 2 mM EDTA. […] Buffer A for the CHT bind/elute step in Table 56 may also comprise 25 mM Tris, pH7.5, 300 mM NaCl, 5.0 mM NaPi, 0.5 mM CaCl2. Columns used are described in Table 58.
The yield, recovery, and purity of the IL-10 delivery construct was assess after each step, and after each process train.

The test system of data set [5] is polarized gut epithelial cells. The data set can be described thus: In vivo transcytosis across gut epithelium after intraluminal injection. More on the design: species or system Wistar rats. The conditions noted are these: luminal application, rat jejunum. How it is done:
In vivo transcytosis was tested using male Wistar rats. Male Wistar rats were housed 3-5 per cage with a 12/12 h light/dark cycle and were about 225-275 g (approximately 6-8 weeks old) when placed on study. Experiments were conducted during the light phase using a non-recovery protocol that uses continuous isoflurane anesthesia. A 4-5 cm midline abdominal incision that exposed mid-jejunum regions was conducted. Stock solutions at 3.86×10^−5M of delivery construct were prepared in phosphate buffered saline (PBS), with 50 μL (per 250 g rat) being administered by intraluminal injection (ILI) using a 29-gauge needle. The injection site mesentery was then marked with a permanent marker. At study termination, a 3-5 mm region that captured the marked intestine segment was isolated and processed for microscopic assessment. The in vivo experiments were performed in accordance with the U.K. Animals (Scientific Procedures) Act of 1986, the European Communities Council Directive of 1986 (86/609/EEC).

Data set [6] concerns colonic markers. Kind of data set: Colonic sigmoidoscopy spray in NHP: inflammatory and tissue repair markers. It is filed as in vivo, Macaca fascicularis. The conditions noted are these: 1, 3, 10 mg. How it is done: To assess the effect of an IL-10 delivery construct on pro-inflammatory and anti-inflammatory markers the IL-10 delivery construct was delivered to male Macaca fascicularis monkeys (about 5 to about 8 kg) by colonic sigmoidoscopy with a spray nozzle. The IL-10 delivery construct was administered at doses of 1 mg, 3 mg, and 10 mg formulated in albumin.

Setting [7] is: Control process train: Capto Q, CHT (Linear elution), based on historical data.
Setting [8] is: PT1: Capto Q, S-650F, CHT (FT mode).
The mark [9] stands for this setting: PT2: Capto Q, CHT (Step elution), S-650F.
The mark [10] stands for this setting: PT3: S-650F, Capto Q, CHT (FT mode).

B1: IL-10 delivery construct: recombinant homodimeric fusion protein: N-terminal methionine, cholix386 domain, polyGlySer spacer, recombinant human IL-10 (protein)
chain: MVEEALNIFDECRSPCSLTPEPGKPIQSKLSIPSDVVLDEGVLYYSMTINDEQNDIKDEDKGESIITIGEFATVRATRHYVNQDAPFGVIHLDITTENGTKTYSYNRKEGEFAINWLVPIGEDSPASIKISVDELDQQRNIIEVPKLYSIDLDNQTLEQWKTQGNVSFSVTRPEHNIAISWPSVSYKAAQKEGSRHKRWAHWHTGLALCWLVPMDAIYNYITQQNCTLGDNWFGGSYETVAGTPKVITVKQGIEQKPVEQRIHFSKGNAMSALAAHRVCGVPLETLARSRKPRDLTDDLSCAYQAQNIVSLFVATRILFSHLDSVFTLNLDEQEPEVAERLSDLRRINENNPGMVTQVLTVARQIYNDYVTHHPGLTPEQTSAGAQAGGGGSGGGGSGGGGSPGQGTQSENSCTHFPGNLPNMLRDLRDAFSRVKTFFQMKDQLDNLLLKESLLEDFKGYLGCQALSEMIQFYLEEVMPQAENQDPDIKAHVNSLGENLKTLRLRLRRCHRFLPCENKSKAVEQVKNAFNKLQEKGIYKAMSEFDIFINYIEAYMTMKIRN
modifications: homodimer
For B1, the “systemic IL-10 after oral vs subcutaneous or intravenous administration” value in data set [1] (oral 1 mg or 5 mgs) is on record as “minimal systemic levels of IL-10”. Besides, the IL-1Ra/IL-10 ratio result in data set [1] (subcutaneous 0.2 mg/kg or intravenous 0.05 mg/kg) is given as “minimal effect”. Further, where the note is “20 mg/mL, any condition tested”, the “aggregation during freeze/thaw or at 1 week at 4 °C” value is reported as “did not show any significant increases in aggregation”. Besides, the “stability with respect to aggregation” value (initial lyophilization feasibility study) is “more stable at pH 7.5 with sucrose and glycine”. The “Dimer Purity (%)” value is on record as 84% in data set [2] (No Sulfitolysis of SIB (97 mL Capto Q)) and 74% in data set [2] (Sulfitolysis of SIB (97 mL Capto Q)). The “total IL-10 in colonic tissue” value in data set [3] (1, 3, 10 mg) is “dose-dependent increase”. In data set [3] (all doses tested), the “colonic tissue pSTAT3/STAT3” value is recorded as “Higher ratios”. Besides, the Endotoxin entry in data set [4] (setting [7]) is given as “*8 EU/mg”; in data set [4] (setting [8]) it was 8.9 EU/mg; in data set [4] (setting [9]) it was 5 EU/mg; in data set [4] (setting [10]), 0.4 EU/mg. Moreover, the Purity result is recorded as “*85%” in data set [4] (setting [7]), 92% in data set [4] (setting [8]), 91% in data set [4] (setting [9]) and 96% in data set [4] (setting [10]). Besides, the Yield was determined as 68 mg in data set [4] (Control: Capto Q ImpRes, CHT gradient B/E) and 26 mg in data set [4] (PT2: Capto Q ImpRes, CHT step B/E 80 mM NaPi, S-650F). In data set [5], the “earliest time of IL-10 payload transport into the Lamina propria” value is 1 min. Also, the “expression of anti-inflammatory markers” value in data set [6] is “increased expression”. Also, the “expression of pro-inflammatory markers” value in data set [6] is given as “decreased expression”. Further, the “expression of tissue repair and wound healing biomarkers” value in data set [6] is recorded as “increased expression”.
